Results reported in IntAct's records for PubMed 27820671.

B1: LIM/homeobox protein Lhx4 (Homo sapiens), Q969G2 (parent)
chain: MMQSATVPAEGAVKGLPEMLGVPMQQIPQCAGCNQHILDKFILKVLDRHWHSSCLKCADCQMQLADRCFSRAGSVYCKEDFFKRFGTKCTACQQGIPPTQVVRKAQDFVYHLHCFACIICNRQLATGDEFYLMEDGRLVCKEDYETAKQNDDSEAGAKRPRTTITAKQLETLKNAYKNSPKPARHVREQLSSETGLDMRVVQVWFQNRRAKEKRLKKDAGRHRWGQFYKSVKRSRGSSKQEKESSAEDCGVSDSELSFREDQILSELGHTNRIYGNVGDVTGGQLMNGSFSMDGTGQSYQDLRDGSPYGIPQSPSSISSLPSHAPLLNGLDYTVDSNLGIIAHAGQGVSQTLRAMAGGPTSDISTGSSVGYPDFPTSPGSWLDEMDHPPF
partner: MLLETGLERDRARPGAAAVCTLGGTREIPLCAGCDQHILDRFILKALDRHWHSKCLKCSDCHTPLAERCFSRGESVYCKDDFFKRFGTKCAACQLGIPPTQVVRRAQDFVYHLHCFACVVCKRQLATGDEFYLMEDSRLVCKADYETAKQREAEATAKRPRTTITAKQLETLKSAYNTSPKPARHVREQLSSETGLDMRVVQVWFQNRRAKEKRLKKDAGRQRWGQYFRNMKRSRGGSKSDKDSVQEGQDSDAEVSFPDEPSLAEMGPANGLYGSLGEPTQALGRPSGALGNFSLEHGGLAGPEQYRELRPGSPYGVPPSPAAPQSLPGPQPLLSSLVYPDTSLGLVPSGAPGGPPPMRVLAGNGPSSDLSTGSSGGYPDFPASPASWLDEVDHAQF
B2: LIM/homeobox protein Lhx4 (Homo sapiens), Q969G2 (parent)
chain: B1 chain
partner: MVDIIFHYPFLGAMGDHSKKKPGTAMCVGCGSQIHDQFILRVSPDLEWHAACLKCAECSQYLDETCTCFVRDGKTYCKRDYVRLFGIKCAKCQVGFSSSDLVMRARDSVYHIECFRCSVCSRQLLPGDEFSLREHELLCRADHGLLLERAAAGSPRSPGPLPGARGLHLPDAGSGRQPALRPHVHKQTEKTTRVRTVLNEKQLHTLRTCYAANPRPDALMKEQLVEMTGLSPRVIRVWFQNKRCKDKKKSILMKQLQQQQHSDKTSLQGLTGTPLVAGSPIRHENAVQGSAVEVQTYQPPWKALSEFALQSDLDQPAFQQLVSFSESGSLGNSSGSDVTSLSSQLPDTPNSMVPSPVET

Variants of: B1
Conditions: with lhx3_human LHX3, Q9UBR4

| Variant | effect of a mutation on the interaction |
| --- | --- |
| MMQSATVPAEGAVKGLPEMLGVPMQQIPQCAGCNQHILDKFILKVLDRHWHSSCLKCADCQMQLVDRCFSRAGSVYCKEDFFKRFGTKCTACQQGIPPTQVVRKAQDFVYHLHCFACIICNRQLATGDEFYLMEDGRLVCKEDYETAKQNDDSEAGAKRPRTTITAKQLETLKNAYKNSPKPARHVREQLSSETGLDMRVVQVWFQNRRAKEKRLKKDAGRHRWGQFYKSVKRSRGSSKQEKESSAEDCGVSDSELSFREDQILSELGHTNRIYGNVGDVTGGQLMNGSFSMDGTGQSYQDLRDGSPYGIPQSPSSISSLPSHAPLLNGLDYTVDSNLGIIAHAGQGVSQTLRAMAGGPTSDISTGSSVGYPDFPTSPGSWLDEMDHPPF [A65V] | with no effect |
| MMQSATVPAEGAVKGLPEMLGVPMQQIPQCAGCNQHILDKFILKVLDRHWHSSCLKAADAQMQLADRCFSRAGSVYCKEDFFKRFGTKCTACQQGIPPTQVVRKAQDFVYHLHCFACIICNRQLATGDEFYLMEDGRLVCKEDYETAKQNDDSEAGAKRPRTTITAKQLETLKNAYKNSPKPARHVREQLSSETGLDMRVVQVWFQNRRAKEKRLKKDAGRHRWGQFYKSVKRSRGSSKQEKESSAEDCGVSDSELSFREDQILSELGHTNRIYGNVGDVTGGQLMNGSFSMDGTGQSYQDLRDGSPYGIPQSPSSISSLPSHAPLLNGLDYTVDSNLGIIAHAGQGVSQTLRAMAGGPTSDISTGSSVGYPDFPTSPGSWLDEMDHPPF [C57A;C60A] | decreasing interaction strength |

Variants of: B2
Conditions: with isl2_human ISL2, Q96A47

| Variant | effect of a mutation on the interaction |
| --- | --- |
| MMQSATVPAEGAVKGLPEMLGVPMQQIPQCAGCNQHILDKFILKVLDRHWHSSCLKCADCQMQLVDRCFSRAGSVYCKEDFFKRFGTKCTACQQGIPPTQVVRKAQDFVYHLHCFACIICNRQLATGDEFYLMEDGRLVCKEDYETAKQNDDSEAGAKRPRTTITAKQLETLKNAYKNSPKPARHVREQLSSETGLDMRVVQVWFQNRRAKEKRLKKDAGRHRWGQFYKSVKRSRGSSKQEKESSAEDCGVSDSELSFREDQILSELGHTNRIYGNVGDVTGGQLMNGSFSMDGTGQSYQDLRDGSPYGIPQSPSSISSLPSHAPLLNGLDYTVDSNLGIIAHAGQGVSQTLRAMAGGPTSDISTGSSVGYPDFPTSPGSWLDEMDHPPF [A65V] | with no effect |
| MMQSATVPAEGAVKGLPEMLGVPMQQIPQCAGCNQHILDKFILKVLDRHWHSSCLKAADAQMQLADRCFSRAGSVYCKEDFFKRFGTKCTACQQGIPPTQVVRKAQDFVYHLHCFACIICNRQLATGDEFYLMEDGRLVCKEDYETAKQNDDSEAGAKRPRTTITAKQLETLKNAYKNSPKPARHVREQLSSETGLDMRVVQVWFQNRRAKEKRLKKDAGRHRWGQFYKSVKRSRGSSKQEKESSAEDCGVSDSELSFREDQILSELGHTNRIYGNVGDVTGGQLMNGSFSMDGTGQSYQDLRDGSPYGIPQSPSSISSLPSHAPLLNGLDYTVDSNLGIIAHAGQGVSQTLRAMAGGPTSDISTGSSVGYPDFPTSPGSWLDEMDHPPF [C57A;C60A] | decreasing interaction strength |
